Data reported in the supplement of paper PMC10567573.

B1: INTS3 (parent)
chain: YPPLEGHVRQGVFSSLNHIVEKRV
B2: MIA2 (parent)
chain: NSISSDKEATVPCTEILTEKKDTI

Variants of: B1
Assay: protein stability index of a GFP-peptide fusion (GPS, HEK-293T) (PSI 1-6); higher = more stable
Settings: c terminus: a fixed tail appended
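Note: lentivirally expressed fusions sorted by FACS into six bins by GFP to DsRed ratio, PSI derived from sequencing read proportions per bin multiplied by bin number.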

Protein stability index: each site, then its substitutions
R23: A 2.19 | F 1.81 | S 2.67 | T 2.53 | D 2.83 | C 2.22 | I 2.17 | W 2.62 | P 2.39
K22: Q 2.23 | L 2.33 | N 2.46 | W 2.14 | P 3.01 | G 1.92 | Y 1.34 | A 2.29
Y1: M 3.59 | C 3.94 | A 4.01 | H 4.07 | T 3.94 | F 2.88 | K 4.07 | Q 3.48
S14: K 2.6 | Q 3.01 | G 2.61 | A 2.75 | R 3.27 | V 2.29 | M 2.07 | F 1.79
G11: Y 1.85 | L 1.85 | Q 2.35 | F 1.8 | A 2.31 | S 2.54 | E 2.88 | P 3.3 | C 1.48
V12: K 3.63 | A 2.58 | N 3.15 | T 3.27 | L 3.31 | M 2.36
L4: K 2.64 | N 2.19 | D 2.46 | M 2.45
N17: F 1.78 | I 1.86 | Y 1.71 | G 2.46 | R 2.44 | T 2.04 | W 2.26 | V 1.99 | L 2.46 | S 2.29 | H 2.21 | A 2.48
H18: V 1.36 | K 2.86 | I 1.99 | R 3.42 | M 3.03 | F 1.97 | L 1.77 | A 1.86 | D 3.39
E5: H 2.24 | K 2.1 | A 2.52 | F 1.66 | G 3.59 | S 1.84 | V 1.49 | W 1.9 | C 2.08 | T 1.96
V8: H 2.48 | S 3 | A 2.46 | R 2.75 | M 2.46 | W 1.78 | F 2.23 | L 2.13 | E 3.53 | Q 2.85
V20: C 2 | G 1.76 | M 2.7 | A 2.7 | D 3.13 | I 2.04 | F 2.78 | E 3.08
P3: M 2.67 | V 2.65 | G 2.9 | I 3.38 | L 2.98 | T 2.4 | K 3.04
L16: C 2.24 | N 3.3 | A 3.33 | F 2.14 | W 2.1 | P 2.93 | R 4.03 | Y 2.22 | H 2.94 | T 2.77 | D 4.2 | M 2.39
E21: H 2.86 | N 2.21 | L 2.29 | P 2.26 | D 3.35 | S 2.05
S15: A 2.23 | C 1.69 | V 2.92 | I 1.64 | P 1.54 | K 2.31 | D 2.95
V24: T 2.09 | G 3.08 | I 2.69 | D 3.16 | S 2.58 | Y 1.95 | E 3.32 | K 2.4 | M 2.06 | N 2.83 | P 2.74 | Q 2.57 | R 2.9
P2: F 2.71 | Q 2.02 | V 1.36 | C 1.78
R9: L 2.07 | D 3.42 | Q 3.28 | P 2.77 | K 2.94 | Y 1.92 | S 2.51 | E 3.52 | C 2.06
F13: M 3.36 | T 2.98 | L 3.77 | N 3.46 | A 3.55 | I 3.6 | S 3.65 | Q 3.16 | H 4.25
H7: T 2.56 | F 2.42 | L 2.2 | S 2.97 | P 2.01 | Q 2.36 | G 2.3 | R 2.22
Q10: M 1.98 | N 1.96 | T 1.83 | S 3.33 | F 2.62 | W 1.49
G6: K 2.13 | A 2.38 | T 3.99 | M 2.51 | S 2.73 | Y 2.38 | P 2.76 | Q 2.74 | W 2.65
I19: F 2.31 | N 3.23 | H 2.65

Variants of: B2
Assay: as above
Settings: c terminus: a fixed tail appended

Protein stability index: each site, then its substitutions
N1: A 5.42 | C 5.27 | D 5.25 | E 5.73 | F 4.77 | G 5.24 | H 5.44 | I 4.79 | K 5.76 | L 5.09 | M 5.33 | P 5.68 | Q 5.44 | R 5.48 | S 5.62 | T 5.05 | V 5 | W 4.89 | Y 4.81
S2: A 5.52 | C 5.27 | D 5.59 | E 5.67 | F 5.37 | G 5.37 | H 5.09 | I 5.32 | K 5.19 | L 5.37 | M 5.54 | N 5.66 | P 5.31 | Q 5.33 | R 5.26 | T 5.1 | V 5.46 | W 5.05 | Y 4.49
I3: A 5.61 | C 5.33 | D 5.44 | E 5.51 | F 5.38 | G 5.54 | H 5.43 | K 5.71 | L 5.02 | M 5.45 | N 5.7 | P 5.36 | Q 5.6 | R 5.7 | S 5.42 | T 4.68 | V 5.45 | W 5.52 | Y 5.58
S4: A 5.41 | C 5.67 | D 5.54 | E 5.68 | F 4.76 | G 4.98 | H 5.5 | I 4.68 | K 5.29 | L 5.21 | M 5.43 | N 5.18 | P 5.24 | Q 5.63 | R 5.35 | T 5.25 | V 5.32 | W 5.11 | Y 5.44
S5: A 5.33 | C 5.25 | D 5.4 | E 5.67 | F 4.94 | G 5.42 | H 5.47 | I 5.17 | K 5.83 | L 5.42 | M 5.23 | N 5.69 | P 5.59 | Q 5.43 | R 4.71 | T 5.39 | V 5.46 | W 5.17 | Y 5.23
D6: A 5.45 | C 4.52 | E 5.63 | F 4.84 | G 5.28 | H 4.89 | I 4.98 | K 5.2 | L 5.06 | M 5 | N 5.42 | P 5.35 | Q 5.12 | R 4.9 | S 5.71 | T 5.31 | V 5.14 | W 4.62 | Y 4.71
K7: A 5.07 | C 5.31 | D 5.4 | E 5.21 | F 4.95 | G 5.8 | H 5.38 | I 5.27 | L 5.52 | M 4.95 | N 5.51 | P 5.62 | Q 5.25 | R 5.07 | S 5.5 | T 5.49 | V 4.95 | W 5.05 | Y 5.17
E8: A 5.07 | C 5.27 | D 5.5 | F 4.93 | G 5.37 | H 4.91 | I 5.32
